According to the supplement of paper PMC10567573:

B1: ZNF449 (parent)
chain: HTGERPYECTVCKKRFTRRSHLIG

Variants of: B1
Assay: protein stability index of a GFP-peptide fusion (GPS, HEK-293T) (PSI 1-6); higher = more stable
Conditions: c terminus: a fixed tail appended
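Also: lentivirally expressed fusions sorted by FACS into six bins by GFP to DsRed ratio, PSI derived from sequencing read proportions per bin multiplied by bin number.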

Protein stability index of substitutions, site by site:
C9: H 3.03, I 3.17, K 3.97, L 2.83, M 2.8, N 3.63, P 3.7, Q 3.64, R 3.99, S 3.69, T 3.14, V 3.01, W 3.62, Y 3.67
T10: A 2.42, C 2.54, D 1.97, F 2.88, I 3.07, L 2.37, M 2.51, N 2.17, P 1.82, Q 1.36, S 2.52, V 1.39, W 1.3, Y 3.04
V11: C 2.29, D 2.44, E 3.06, F 1.47, G 2.99, H 2.99, I 1.58, K 3.82, L 2.08, M 1.91, N 2.8, P 2.58, Q 3.12, R 2.39, S 2.58, T 3.47, W 2.6, Y 2.64
C12: D 3.99, F 3.01, H 3.73, I 3.31, K 3.98, L 1.55, M 4.64, N 3.42, P 3.06, R 3.79, S 3.39, V 2.76, W 1.86, Y 3.2
K13: A 1.63, C 1.06, D 2.91, E 2.42, F 2, G 1.52, I 2.06, L 2.09, M 1.62, N 1.78, P 2.86, Q 2, R 2.31, T 2.33, V 3.25, W 2.62, Y 2.47
K14: A 1.89, C 2.01, D 2.29, E 1.73, G 1.44, H 2.58, I 2.26, L 1.66, M 1.61, P 1.97, Q 1.75, R 1.53, S 2.27, V 2.09, W 1.49
R15: A 1.99, C 2.23, D 2.09, E 2.04, F 1.72, H 3.03, I 2.1, K 2.52, L 1.39, M 2.51, N 2.58, Q 1.79, S 1.52, T 2.52, V 2.16, W 2.56, Y 1.09
F16: A 2.1, C 2.42, D 3, G 2.82, H 3.32, I 1.71, L 1.67, M 1.89, N 2.72, P 3.2, Q 2.4, R 2.89, S 2.51, T 2, W 1.96, Y 1.99
T17: A 2.19, C 4.7, D 1.9, E 2.63, F 1.51, G 1.82, H 3.25, I 2.3, K 2.52, L 2.19, M 1.22, N 2.21, P 1.78, R 2.95, S 1.94, V 1.92, W 2.03
R18: A 2.13, C 2.97, D 2.88, F 2.18, G 2.12, H 1.76, I 2.7, K 1.97, L 1.74, M 1.5, N 1.62, P 1.91, Q 1.81, S 2.5, T 1.97, V 1.59, W 2.33
R19: A 1.71, C 4.07, D 1.62, E 2.01, G 2.22, H 1.96, I 1.39, K 2.54
